Reference: patent US20220143148A1, “COMPOSITIONS AND METHODS FOR MODULATING CGRP SIGNALING TO REGULATE INTESTINAL INNATE LYMPHOID CELLS” (The Broad Institute, Inc., priority 2019, published 2022)

Tested on: small intestinal immune cells
Assay: Droplet-based scRNA-seq of small intestinal immune cells (LP and PP), OVA vs PBS, clustering and differential expression
Format: in vivo, mouse
Details: for percentage of expressing cells in OVA-treated group / LN (average fold change): cluster ID 12, LP
Text: To comprehensively characterize small intestinal immune cells, Applicants generated scRNA-Seq profiles for 58,067 immune cells collected from lamina propria (LP) and Peyer's patch (PP) regions at steady state and after induction of a type 2 inflammatory reaction to ovalbumin (OVA) (Brandt et al., 2003) (FIGS. 1A and 8A). To ensure sufficient representation of rare cells, Applicants combined a normalization strategy—removing by flow sorting either a portion of IgD+ naïve B cells, which are the most abundant cell type in PPs, or all CD19+ and CD3+ T cells (FIG. 8B, Methods)—with profiling of a sufficiently large number of cells number (P>0.99 to recover at least 15 cells from each cluster, Methods) by massively parallel scRNA-seq (Haber et al., 2017) (Methods). Applicants obtained 36,797 and 21,270 high quality cells passing initial filtering (Methods) from PP and LP regions, respectively.
Overall, Applicants annotated 27 cell subsets across the two compartments, spanning T cells, B cells, ILCs, dendritic cells (DCs), myeloid cells and stromal cells, in frequencies ranging from 0.07% to 14%. Briefly, Applicants first partitioned the cells from the PP regions by unsupervised clustering (Methods) into 46 clusters, retained the 97% of cells that were robustly assigned cell identities in each cluster (Methods), assigned the cells from the LP regions to the 46 clusters using a classifier (Methods), and visualized the data with scvis (Ding et al., 2018), a deep generative model-based method (FIGS. 1B and 8C, Methods). Next, Applicants identified genes that were differentially expressed between the cells in each cluster and the remaining cells (Table 1, Methods), as well as between pairs of clusters (Table 2), to elucidate identities of similar cell types/states. Applicants excluded from downstream analysis clusters mostly consisting of contaminants from epithelium, likely doublets, or cells with a small number of Unique Molecular Identifiers (UMIs) (FIGS. 1C and 8D), or lacking distinct markers (Methods). Altogether, Applicants retained 27 clusters spanning 85% of the cells and each associated with distinct marker genes (FIG. 8E, Methods).
To induce allergic reaction to OVA, 6 to 7 weeks old mice were sensitized twice, two weeks apart, with 50 μg of OVA plus 1 mg of aluminum potassium sulfate adjuvant via intraperitoneal injection. Two weeks later, mice were orally administered with 50 mg of OVA on every other day for a total of five times. 1 μg of α-CGRP peptide was administered simultaneously when indicated. Mice were deprived of food for 3-4 hours in cages with wood chip bedding for limiting antigen degradation in the stomach before each intragastric challenge.
Isolation of cells from Peyer's patches (PPs). Peyer's patches (PPs) were carefully dissected from the small intestine under a stereo microscope using a fine scissor, pierced once with a fine forcep. Tissues were digested in freshly made digestion buffer (RPMI-1640 containing 100 μg/ml Liberase™ and 50 μg/ml DNase I at 37° C. on a roto-mixer. After 15 min, tissues were very gently mixed using a 1 ml pipette. The supernatant was collected and added to ice-cold MACS buffer (pH 7.4; PBS plus 2% FCS and 2 mM EDTA). Pre-warmed (37° C.) fresh digestion buffer was added to the remaining tissues. After rotation at 37° C. for 15 min, the mixture was vigorously mixed using a 1 ml pipette for 1 min. Supernatants from the two steps were combined and passed through 70 μm filters and stained for FACS (below).
Isolation of cells from the lamina propria (LP). The small intestines were opened longitudinally and washed in ice-cold PBS. For scRNA-seq, roughly 0.5 cm of fragments from each of the distal, middle and proximal regions without visible PPs were collected. Epithelial cells were dissociated by tissue rotation in pre-warmed (37° C.) PBS containing 10 mM EDTA at 37° C. for 15 min, followed by additional incubation on ice for 15 min. Tissues were then shaken vigorously. […]

B1: OVA (protein, UniProt P01012 2-386, looked up)
Ovalbumin: GSIGAASMEFCFDVFKELKVHHANENIFYCPIAIMSALAMVYLGAKDSTRTQINKVVRFDKLPGFGDSIEAQCGTSVNVHSSLRDILNQITKPNDVYSFSLASRLYAEERYPILPEYLQCVKELYRGGLEPINFQTAADQARELINSWVESQTNGIIRNVLQPSSVDSQTAMVLVNAIVFKGLWEKAFKDEDTQAMPFRVTEQESKPVQMMYQIGLFRVASMASEKMKILELPFASGTMSMLVLLPDEVSGLEQLESIINFEKLTEWTSSNVMEERKIKVYLPRMKMEEKYNLTSVLMAMGITDVFSSSANLSGISSAESLKISQAVHAAHAEINEAGREVVGSAEAGVDAASVSEEFRADHPFLFCIKHIATNAVLFFGRCVSP
- Rilpl2: LN (average fold change) (cluster ID 6, PP, OVA vs PBS): −0.158
- Rnase6: LN (average fold change) (cluster ID 6, PP, OVA vs PBS): 0.160
- Rnf19b: LN (average fold change) (cluster ID 6, PP, OVA vs PBS): −0.314
- Rpn2: LN (average fold change) (cluster ID 6, PP, OVA vs PBS): 0.272
- Runx3: LN (average fold change) (cluster ID 6, PP, OVA vs PBS): −0.200
- S1pr4: LN (average fold change) (cluster ID 6, PP, OVA vs PBS): 0.331
- Sell: LN (average fold change) (cluster ID 6, PP, OVA vs PBS): 0.172
- Selplg: LN (average fold change) (cluster ID 6, PP, OVA vs PBS): 0.183
- Sf3b1: LN (average fold change) (cluster ID 6, PP, OVA vs PBS): 0.237
- Siah2: LN (average fold change) (cluster ID 6, PP, OVA vs PBS): −0.303
- Skil: LN (average fold change) (cluster ID 6, PP, OVA vs PBS): −0.246
- Sla2: LN (average fold change) (cluster ID 6, PP, OVA vs PBS): 0.243
- Smc6: LN (average fold change) (cluster ID 6, PP, OVA vs PBS): −0.180
- Socs3: LN (average fold change) (cluster ID 6, PP, OVA vs PBS): 0.385
- Spsb2: LN (average fold change) (cluster ID 6, PP, OVA vs PBS): −0.508
- Tgif1: LN (average fold change) (cluster ID 6, PP, OVA vs PBS): −0.548
- Tnfaip8l2: LN (average fold change) (cluster ID 6, PP, OVA vs PBS): 0.307
- Traf4: LN (average fold change) (cluster ID 6, PP, OVA vs PBS): −0.199
- Trim25: LN (average fold change) (cluster ID 6, PP, OVA vs PBS): −0.239
- VgIl4: LN (average fold change) (cluster ID 6, PP, OVA vs PBS): −0.419
- Vps37b: LN (average fold change) (cluster ID 6, PP, OVA vs PBS): −0.292
- Wnk1: LN (average fold change) (cluster ID 6, PP, OVA vs PBS): −0.262
- Zc3h12a: LN (average fold change) (cluster ID 6, PP, OVA vs PBS): −0.495
- Zfand5: LN (average fold change) (cluster ID 6, PP, OVA vs PBS): −0.220
- Zfp36l2: LN (average fold change) (cluster ID 6, PP, OVA vs PBS): 0.365
- percentage of expressing cells in OVA-treated group (gene Abhd17c): 0.52
- LN (average fold change) (gene Abhd17c, OVA vs PBS): 0.599
- percentage of expressing cells in OVA-treated group (gene Arf6): 0.429
- LN (average fold change) (gene Arf6, OVA vs PBS): 0.610
- percentage of expressing cells in OVA-treated group (gene Arl4a): 0.256
- LN (average fold change) (gene Arl4a, OVA vs PBS): 0.781
- percentage of expressing cells in OVA-treated group (gene Arl5c): 0.04
- LN (average fold change) (gene Arl5c, OVA vs PBS): −1.873
- percentage of expressing cells in OVA-treated group (gene Arpc2): 0.769
- LN (average fold change) (gene Arpc2, OVA vs PBS): 0.318
- percentage of expressing cells in OVA-treated group (gene BC031181): 0.365
- LN (average fold change) (gene BC031181, OVA vs PBS): −0.512
- percentage of expressing cells in OVA-treated group (gene Cbarp): 0.193
- LN (average fold change) (gene Cbarp, OVA vs PBS): 0.886
- percentage of expressing cells in OVA-treated group (gene Ccl1): 0.203
- LN (average fold change) (gene Ccl1, OVA vs PBS): 1.335
- percentage of expressing cells in OVA-treated group (gene Ccrl2): 0.192
- LN (average fold change) (gene Ccrl2, OVA vs PBS): −0.742
- percentage of expressing cells in OVA-treated group (gene Cd52): 0.581
- LN (average fold change) (gene Cd52, OVA vs PBS): 0.644
- percentage of expressing cells in OVA-treated group (gene Cited2): 0.176
- LN (average fold change) (gene Cited2, OVA vs PBS): −0.724
- percentage of expressing cells in OVA-treated group (gene Cntnap2): 0.074
- LN (average fold change) (gene Cntnap2, OVA vs PBS): −1.008
- percentage of expressing cells in OVA-treated group (gene Coq10b): 0.332
- LN (average fold change) (gene Coq10b, OVA vs PBS): −0.690
- percentage of expressing cells in OVA-treated group (gene Cox8a): 0.798
- LN (average fold change) (gene Cox8a, OVA vs PBS): 0.285
- percentage of expressing cells in OVA-treated group (gene Cwc25): 0.061
- LN (average fold change) (gene Cwc25, OVA vs PBS): −1.439
- percentage of expressing cells in OVA-treated group (gene Cycs): 0.531
- LN (average fold change) (gene Cycs, OVA vs PBS): 0.561
- percentage of expressing cells in OVA-treated group (gene Ddx5): 0.886
- LN (average fold change) (gene Ddx5, OVA vs PBS): −0.276
- percentage of expressing cells in OVA-treated group (gene Dtx1): 0.05
- LN (average fold change) (gene Dtx1, OVA vs PBS): −1.600
- percentage of expressing cells in OVA-treated group (gene Eef1a1): 0.997
- LN (average fold change) (gene Eef1a1, OVA vs PBS): 0.236
- percentage of expressing cells in OVA-treated group (gene Eef1b2): 0.709
- LN (average fold change) (gene Eef1b2, OVA vs PBS): 0.395
- percentage of expressing cells in OVA-treated group (gene Eef2): 0.927
- LN (average fold change) (gene Eef2, OVA vs PBS): 0.240
- percentage of expressing cells in OVA-treated group (gene Eif1): 0.996
- LN (average fold change) (gene Eif1, OVA vs PBS): 0.152
- percentage of expressing cells in OVA-treated group (gene Eif3e): 0.67
- LN (average fold change) (gene Eif3e, OVA vs PBS): 0.416
- percentage of expressing cells in OVA-treated group (gene Eif3h): 0.686
- LN (average fold change) (gene Eif3h, OVA vs PBS): 0.298
- percentage of expressing cells in OVA-treated group (gene Emd): 0.235
- LN (average fold change) (gene Emd, OVA vs PBS): −0.729
